# From patent publication US20130209454A1
# Columns and labels:
# [1] = target: Env of HIV-1 strain TRO.11 (HIV-1); assay: cell-based or functional assay
# [2] = target: Env of HIV-1 strain AC10.0.29 (HIV-1); assay: cell-based or functional assay
# [3] = target: the viral strains including SC422661.8, TRO0.11, CAP45.2.00G3, CAP210.2.00E8, Du172.17, and AC10.0.29; assay: cell-based or functional assay
# [4] = target: Env of HIV-1 strain SC422661.8 (HIV-1); assay: cell-based or functional assay
# [5] = target: Env of HIV-1 strain CAP45.2.00.G3 (HIV-1); assay: cell-based or functional assay
# [6] = target: Env of HIV-1 strain Du172.17 (HIV-1); assay: cell-based or functional assay
# [7] = target: Env of HIV-1 strain CAP210.2.00.E8 (HIV-1); assay: cell-based or functional assay
# [8] = target: HIV-1 strain SC422661.8 envelope (gp120) (HIV-1); assay: cell-based or functional assay
# [9] = target: HIV-1 strain CAP45.2.00.G3 envelope (gp120) (HIV-1); assay: cell-based or functional assay
# [10] = target: HIV-1 strain AC10.0.29 envelope (gp120) (HIV-1); assay: cell-based or functional assay
# [11] = target: HIV-1 strain TRO.11 envelope (gp120) (HIV-1); assay: cell-based or functional assay
# [12] = target: HIV-1 strain Du172.17 envelope (gp120) (HIV-1); assay: cell-based or functional assay
# [13] = target: HIV-1 strain CAP210.2.00.E8 envelope (gp120) (HIV-1); assay: cell-based or functional assay
# [14] = target: HIV-1 Env of strain CAP45.2.00.G3 (HIV-1); assay: cell-based or functional assay
# [15] = target: HIV-1 Env of strain AC10.0.29 (HIV-1); assay: cell-based or functional assay
# [16] = target: HIV-1 Env of strain SC422661.8 (HIV-1); assay: cell-based or functional assay
# [17] = target: HIV-1 Env of strain CAP210.2.00.E8 (HIV-1); assay: cell-based or functional assay
# [18] = target: HIV-1 Env of strain TRO.11 (HIV-1); assay: cell-based or functional assay
# [19] = target: HIV-1 Env of strain Du172.17 (HIV-1); assay: cell-based or functional assay
# [20] = target: Q259.d2.17 gp120 core (HIV-1)
# [21] = target: CAP244.2.00.D3 gp120 core (HIV-1)
# [22] = target: 93TH057 gp120 core (HIV-1)
binder,measurement,setting,value
"3BNC60 (antibody, V domains shown) VH: QVHLSQSGAAVTKPGASVRVSCEASGYKISDHFIHWWRQAPGQGLQWVGWINPKTGQPNNPRQFQGRVSLTRQASWDFDTYSFYMDLKAVRSDDTAIYFCARQRSDFWDFDVWGSGTQVTVSS VL: DIQMTQSPSSLSARVGDTVTITCQANGYLNWYQQRRGKAPKLLIYDGSKLERGVPARFSGRRWGQEYNLTINNLQPEDVATYFCQVYEFIVPGTRLDLKRTVA",IC50,[1],0.018 µg/mL
same,IC50,[2],> 50 µg/mL
same,IC50 (averaged across the strains),[3],0.3 µg/mL
same,IC50,[4],0.042 µg/mL
same,IC50,[5],43.2 µg/mL
same,IC50,[6],1.4 µg/mL
same,IC50,[7],10.6 µg/mL
"12A12^Y54W IgG (antibody, name in Kabat numbering, V domains shown) VH: SQHLVQSGTQVKKPGASVRISCQASGYSFTDYVLHWWRQAPGQGLEWMGWIKPVWGARNYARRFQGRINFDRDIYREIAFMDLSGLRSDDTALYFCARDGSGDDTSWHLDPWGQGTLVIVSA VL: DIQMTQSPSSLSASVGDRVTITCQAGQGIGSSLQWYQQKPGKAPKLLVHGASNLHRGVPSRFSGSGFHTTFSLTISGLQRDDFATYFCAVLEFFGPGTKVEIKR",neutralization IC50,[8],0.2 µg/mL
same,neutralization IC50,[9],0.2 µg/mL
same,neutralization IC50,[10],0.5 µg/mL
same,neutralization IC50,[11],0.2 µg/mL
same,neutralization IC50,[12],0.1 µg/mL
same,neutralization IC50,[13],> 50 µg/mL
"3BNC55 T54W IgG (antibody, name in Kabat numbering, V domains shown) VH: QVQLVQSGTAVKRPGASVRVSCQASGYTFTDYFIYWWRQAPGQGLEWLGWINPLWSQPSYPSRFQGRLTLTRDTFDEMLYMDLRGLRSDDTGIYFCARRHSDYCDFDIWGSGTQIIVSS VL: DIQMTQSPSSLSASVGDKVTITCQTSAGYLNWYQQRRGRAPKLLMYDGSRLVTGVPSRFSGRRWGTQYNLTIGSLQPEDIATYYCQVYEFFGPGTRLDLKS",neutralization IC50,[8],0.6 µg/mL
same,neutralization IC50,[9],> 50 µg/mL
same,neutralization IC50,[10],> 50 µg/mL
same,neutralization IC50,[11],> 50 µg/mL
same,neutralization IC50,[12],> 50 µg/mL
same,neutralization IC50,[13],> 50 µg/mL
"NIH45-46 G54I IgG (antibody, name in Kabat numbering, V domains shown) VH: QVRLSQSGGQMKKPGESMRLSCRASGYEFLNCPINWIRLAPGRRPEWMGWLKPRIGAVNYARKFQGRVTMTRDVYSDTAFLELRSLTSDDTAVYFCTRGKYCTARDYYNWDFEHWGRGAPVTVSS VL: EIVLTQSPATLSLSPGETAIISCRTSQSGSLAWYQQRPGQAPRLVIYSGSTRAAGIPDRFSGSRWGADYNLSISNLESGDFGVYYCQQYEFFGQGTKVQVDI",neutralization IC50,[14],> 50 µg/mL
same,neutralization IC50,[15],8.6 µg/mL
same,neutralization IC50,[16],0.1 µg/mL
same,neutralization IC50,[17],> 50 µg/mL
same,neutralization IC50,[18],10 µg/mL
same,neutralization IC50,[19],> 50 µg/mL
"NIH45-46^G54W Fab (C-terminal 6x-His tagged heavy chain, SPR) (Fab, V domains shown) VH: QVRLSQSGGQMKKPGESMRLSCRASGYEFLNCPINWIRLAPGRRPEWMGWLKPRWGAVNYARKFQGRVTMTRDVYSDTAFLELRSLTSDDTAVYFCTRGKYCTARDYYNWDFEHWGRGAPVTVSS VL: EIVLTQSPATLSLSPGETAIISCRTSQSGSLAWYQQRPGQAPRLVIYSGSTRAAGIPDRFSGSRWGADYNLSISNLESGDFGVYYCQQYEFFGQGTKVQVDI",Kd,[20],48 nM
same,koff,[20],0.0017 s⁻¹
same,kon,[20],34000 M⁻¹ s⁻¹
same,Kd,[21],37 nM
same,kon,[21],22000 M⁻¹ s⁻¹
same,Kd,[22],63 nM
same,koff,[22],0.0016 s⁻¹
same,kon,[22],26000 M⁻¹ s⁻¹
"NIH45-46 G54H IgG (antibody, name in Kabat numbering, V domains shown) VH: QVRLSQSGGQMKKPGESMRLSCRASGYEFLNCPINWIRLAPGRRPEWMGWLKPRHGAVNYARKFQGRVTMTRDVYSDTAFLELRSLTSDDTAVYFCTRGKYCTARDYYNWDFEHWGRGAPVTVSS VL: EIVLTQSPATLSLSPGETAIISCRTSQSGSLAWYQQRPGQAPRLVIYSGSTRAAGIPDRFSGSRWGADYNLSISNLESGDFGVYYCQQYEFFGQGTKVQVDI",neutralization IC50,[14],> 50 µg/mL
same,neutralization IC50,[15],0.6 µg/mL
same,neutralization IC50,[16],0.09 µg/mL
same,neutralization IC50,[17],> 50 µg/mL
same,neutralization IC50,[18],0.2 µg/mL
same,neutralization IC50,[19],> 50 µg/mL
"NIH45-46 G54L IgG (antibody, name in Kabat numbering, V domains shown) VH: QVRLSQSGGQMKKPGESMRLSCRASGYEFLNCPINWIRLAPGRRPEWMGWLKPRLGAVNYARKFQGRVTMTRDVYSDTAFLELRSLTSDDTAVYFCTRGKYCTARDYYNWDFEHWGRGAPVTVSS VL: EIVLTQSPATLSLSPGETAIISCRTSQSGSLAWYQQRPGQAPRLVIYSGSTRAAGIPDRFSGSRWGADYNLSISNLESGDFGVYYCQQYEFFGQGTKVQVDI",neutralization IC50,[14],> 50 µg/mL
same,neutralization IC50,[15],1.7 µg/mL
same,neutralization IC50,[16],0.1 µg/mL
same,neutralization IC50,[17],> 50 µg/mL
same,neutralization IC50,[18],0.3 µg/mL
same,neutralization IC50,[19],> 50 µg/mL
"NIH45-46 G54M IgG (antibody, name in Kabat numbering, V domains shown) VH: QVRLSQSGGQMKKPGESMRLSCRASGYEFLNCPINWIRLAPGRRPEWMGWLKPRMGAVNYARKFQGRVTMTRDVYSDTAFLELRSLTSDDTAVYFCTRGKYCTARDYYNWDFEHWGRGAPVTVSS VL: EIVLTQSPATLSLSPGETAIISCRTSQSGSLAWYQQRPGQAPRLVIYSGSTRAAGIPDRFSGSRWGADYNLSISNLESGDFGVYYCQQYEFFGQGTKVQVDI",neutralization IC50,[14],> 50 µg/mL
same,neutralization IC50,[15],1.5 µg/mL
same,neutralization IC50,[16],0.06 µg/mL
same,neutralization IC50,[17],> 50 µg/mL
same,neutralization IC50,[18],0.3 µg/mL
same,neutralization IC50,[19],> 50 µg/mL
